Measured values published in publication PMC9672333.

These substances were tested against Omicron BA.1 spike RBD (UniProt P0DTC2) (SARS-CoV-2) (UniProt P0DTC2) (assay: microfluidic diffusional sizing (MDS)).

Row | Substance | fold reduction of binding affinity relative to wild type RBD [fold]
1 | Tixagevimab Biosimilar (antibody) | > 100
2 | Cilgavimab Biosimilar (antibody) | > 100
3 | Casirivimab (antibody) | > 100
